The source of these data is PMC11904967.

The term stoichiometry N denotes the number of molecules, sites or subunits per partner or assembly.

For the assay, the target named is pyruvate kinase PKM (PKM2), endogenous in PANC‐1 cells (human (endogenous in PANC-1)) (UniProt P14618). The assay can be described thus: western blotting of monomers and dimers; AsPC-1 and PANC-1 cells transduced with HACD2 WT, HACD2 MUT or vector, or with HACD2 knockdown; how dimers were kept on the gel is not told.

pyruvate kinase PKM (PKM2), endogenous in PANC‐1 cells, P14618 1-531 (natural protein; other documents disagree on this pair), sequence (P14618 whole entry): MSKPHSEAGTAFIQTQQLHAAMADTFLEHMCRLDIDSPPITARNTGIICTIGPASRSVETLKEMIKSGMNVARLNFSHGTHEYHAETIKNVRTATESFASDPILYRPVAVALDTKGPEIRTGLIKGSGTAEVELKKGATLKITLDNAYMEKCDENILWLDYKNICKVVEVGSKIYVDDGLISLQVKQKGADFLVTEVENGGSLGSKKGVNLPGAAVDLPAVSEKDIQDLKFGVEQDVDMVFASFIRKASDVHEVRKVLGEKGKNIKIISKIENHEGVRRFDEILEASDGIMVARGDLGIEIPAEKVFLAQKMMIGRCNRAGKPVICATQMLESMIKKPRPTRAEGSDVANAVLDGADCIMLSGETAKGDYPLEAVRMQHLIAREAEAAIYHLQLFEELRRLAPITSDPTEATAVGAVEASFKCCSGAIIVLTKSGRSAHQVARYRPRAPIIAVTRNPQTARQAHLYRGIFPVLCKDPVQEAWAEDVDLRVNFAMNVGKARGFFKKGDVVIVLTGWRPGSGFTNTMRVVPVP

As for “pyruvate kinase PKM (PKM2), endogenous in PANC‐1 cells, P14618 1-531 (natural protein; other documents disagree on this pair)”, the stoichiometry N came out at 2.
